For eleven proteins, Correct pairing (%) results are on record in US20190382475.

Changes are numbered by the printed parent chain. Names may count otherwise.

Holding throughout (experiment): LC-UV-ESI-MS of purified Fab after co-expression of two heavy and two light chains in HEK293T (chain competition); competing chains not named
Series [1] addresses anti c-Kit Fab heavy chain Q39K/K147D/S165R.
Series [2] concerns the target anti c-Kit Fab heavy chain Q39K/K147/S165R.
For series [3], the target named is anti c-Kit Fab heavy chain Q39K/K147D/S165.
The target of series [4] is anti c-Kit Fab heavy chain Q39K/K147/S165.
Series [5] concerns the target anti c-Kit Fab heavy chain Q39/K147/S165 (wild type).
Series [6] addresses anti c-Kit Fab heavy chain Q39/K147/S165D.
Series [7] has as its target anti c-Kit Fab heavy chain Q39/K147/S165R.
Series [8] has as its target anti c-Kit Fab heavy chain Q39/K147D/S165.
Series [9] deals with anti c-Kit Fab heavy chain Q39/K147D/S165R.
Series [10] concerns the target anti c-Kit Fab heavy chain Q39D/K147/S165D.
For series [11], the target named is anti c-Kit Fab heavy chain Q39D/K147/S165.

B1: anti c-Kit Fab light chain Q38D/Q124K/K169D (protein)
chain: DIQMTQSPSSLSASVGDRVTITCRASQSISSYLNWYQDKPGKAPKLLIYYTSRLQSGVPSRFSGSGSGTDFTLTISSLQPEDFATYYCQQGRRLWSFGGGTKVEIKRTVAAPSVFIFPPSDEKLKSGTASVVCLLNNFYPREAKVQWKVDNALQSGNSQESVTEQDSDDSTYSLSSTLTLSKADYEKHKVYACEVTHQGLSSPVTKSFNRGEC
In series [1], B1 displayed a Correct pairing (%) of 100%.

B2: anti c-Kit Fab light chain Q38D/Q124/K169D (protein)
chain: B1 chain with K123Q
For B2, the Correct pairing (%) in series [2] stood at 75%.

B3: anti c-Kit Fab light chain Q38D/Q124K/K169 (protein)
chain: B1 chain with D168K
With B3, in series [3], the Correct pairing (%) came to 95%.

B4: anti c-Kit Fab light chain Q38D/Q124/K169 (protein)
chain: B1 chain with K123Q, D168K
B4 showed a Correct pairing (%) in series [4] of 74%.

B5: anti c-Kit Fab light chain Q38/Q124/K169 (wild type) (protein)
chain: B1 chain with D38Q, K123Q, D168K
Consider B5, for which the Correct pairing (%) is 63% in series [5] and 87% in series [6].

B6: anti c-Kit Fab light chain Q38/Q124D/K169 (protein)
chain: B1 chain with D38Q, K123D, D168K
On to B6, for which the results for the Correct pairing (%) in series [5] and in series [6] were 91% and 88%, respectively.

B7: anti c-Kit Fab light chain Q38/Q124/K169D (protein)
chain: B1 chain with D38Q, K123Q
B7 showed a Correct pairing (%) in series [7] of 68%.

B8: anti c-Kit Fab light chain Q38/Q124K/K169 (protein)
chain: B1 chain with D38Q, D168K
As for B8, the Correct pairing (%) in series [8] turned out to be 91%.

B9: anti c-Kit Fab light chain Q38/Q124K/K169D (protein)
chain: B1 chain with D38Q
B9: the Correct pairing (%) in [9] worked out at 90%.

B10: anti c-Kit Fab light chain Q38K/Q124D/K169 (protein)
chain: B1 chain with D38K, K123D, D168K
As for B10, the Correct pairing (%) is 100% in series [10] and 93% in series [11].

B11: anti c-Kit Fab light chain Q38K/Q124/K169 (protein)
chain: B1 chain with D38K, K123Q, D168K
B11: the Correct pairing (%) in series [10] and in series [11] was 95% each time.
